# How the values were obtained:
# PD-1 [1] = biological target: PD-1 (UniProt Q15116 25-167, limits assumed); test: ELISA, OD mutant/OD WT; A=90-110%
# Target sequence in this assay (Q15116 25-167 limits assumed): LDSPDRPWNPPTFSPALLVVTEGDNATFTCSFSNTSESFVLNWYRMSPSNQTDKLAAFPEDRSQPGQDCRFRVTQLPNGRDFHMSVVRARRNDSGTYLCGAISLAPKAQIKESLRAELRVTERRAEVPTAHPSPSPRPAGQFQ
# PD-1 [2] = biological target: T1, PD-1 (UniProt Q15116 25-167, limits assumed); test: ELISA; S13 on the Cys
# T1 sequence (Q15116 25-167 limits assumed): as above
# PD-1 [3] = biological target: T1, PD-1; test: ELISA; S9 on the Cys
# PD-1 [4] = biological target: T1, PD-1; test: ELISA; Cys mutant, no arm
Binder,binding activity (OD after mutation/OD wild type) (PD-1 [1]),"binding activity, % of wild type (PD-1 [2])","binding activity, % of wild type (PD-1 [3])","binding activity, % of wild type (PD-1 [4])"
"anti-PD-1 antibody 2 HC Ala92Cys (antibody, human IgG4 S228P, kappa, V domains shown, arm on Cys92 as named in each row) VH: QVQLVESGGGVVQPGRSLRLDCKASGITFSNSGMHWVRQAPGKGLEWVAVIWYDGSKRYYADSVKGRFTISRDNSKNTLFLQMNSLRAEDTCVYYCATNDDYWGQGTLVTVSS VL: EIVLTQSPATLSLSPGERATLSCRASQSVSSYLAWYQQKPGQAPRLLIYDASNRATGIPARFSGSGSGTDFTLTISSLEPEDFAVYYCQQSSNWPRTFGQGTKVEIKR",–,15%,64.6%,85%
"anti-PD-1 antibody 2 HC Gly42Cys (antibody, human IgG4 S228P, kappa, V domains shown, arm on Cys42 as named in each row) VH: QVQLVESGGGVVQPGRSLRLDCKASGITFSNSGMHWVRQAPCKGLEWVAVIWYDGSKRYYADSVKGRFTISRDNSKNTLFLQMNSLRAEDTAVYYCATNDDYWGQGTLVTVSS VL: EIVLTQSPATLSLSPGERATLSCRASQSVSSYLAWYQQKPGQAPRLLIYDASNRATGIPARFSGSGSGTDFTLTISSLEPEDFAVYYCQQSSNWPRTFGQGTKVEIKR",–,29.8%,63.6%,83.4%
"anti-PD-1 antibody 2 HC Gly8Cys (antibody, human IgG4 S228P, kappa, V domains shown, arm on Cys8 as named in each row) VH: QVQLVESCGGVVQPGRSLRLDCKASGITFSNSGMHWVRQAPGKGLEWVAVIWYDGSKRYYADSVKGRFTISRDNSKNTLFLQMNSLRAEDTAVYYCATNDDYWGQGTLVTVSS VL: EIVLTQSPATLSLSPGERATLSCRASQSVSSYLAWYQQKPGQAPRLLIYDASNRATGIPARFSGSGSGTDFTLTISSLEPEDFAVYYCQQSSNWPRTFGQGTKVEIKR",–,34.2%,78.3%,93.2%
"anti-PD-1 antibody 2 HC Gly9Cys (antibody, human IgG4 S228P, kappa, V domains shown, arm on Cys9 as named in each row) VH: QVQLVESGCGVVQPGRSLRLDCKASGITFSNSGMHWVRQAPGKGLEWVAVIWYDGSKRYYADSVKGRFTISRDNSKNTLFLQMNSLRAEDTAVYYCATNDDYWGQGTLVTVSS VL: EIVLTQSPATLSLSPGERATLSCRASQSVSSYLAWYQQKPGQAPRLLIYDASNRATGIPARFSGSGSGTDFTLTISSLEPEDFAVYYCQQSSNWPRTFGQGTKVEIKR",–,24.6%,87.4%,97.8%
"anti-PD-1 antibody 2 HC Ala24Cys (antibody, human IgG4 S228P, kappa, V domains shown, arm on Cys24 as named in each row) VH: QVQLVESGGGVVQPGRSLRLDCKCSGITFSNSGMHWVRQAPGKGLEWVAVIWYDGSKRYYADSVKGRFTISRDNSKNTLFLQMNSLRAEDTAVYYCATNDDYWGQGTLVTVSS VL: EIVLTQSPATLSLSPGERATLSCRASQSVSSYLAWYQQKPGQAPRLLIYDASNRATGIPARFSGSGSGTDFTLTISSLEPEDFAVYYCQQSSNWPRTFGQGTKVEIKR",–,32.3%,45.6%,99.6%
"anti-PD-1 antibody 2 HC Ala40Cys (antibody, human IgG4 S228P, kappa, V domains shown, arm on Cys40 as named in each row) VH: QVQLVESGGGVVQPGRSLRLDCKASGITFSNSGMHWVRQCPGKGLEWVAVIWYDGSKRYYADSVKGRFTISRDNSKNTLFLQMNSLRAEDTAVYYCATNDDYWGQGTLVTVSS VL: EIVLTQSPATLSLSPGERATLSCRASQSVSSYLAWYQQKPGQAPRLLIYDASNRATGIPARFSGSGSGTDFTLTISSLEPEDFAVYYCQQSSNWPRTFGQGTKVEIKR",–,37.2%,50.3%,85.3%
"anti-PD-1 antibody 2 HC Gly15Cys (antibody, human IgG4 S228P, kappa, V domains shown, arm on Cys15 as named in each row) VH: QVQLVESGGGVVQPCRSLRLDCKASGITFSNSGMHWVRQAPGKGLEWVAVIWYDGSKRYYADSVKGRFTISRDNSKNTLFLQMNSLRAEDTAVYYCATNDDYWGQGTLVTVSS VL: EIVLTQSPATLSLSPGERATLSCRASQSVSSYLAWYQQKPGQAPRLLIYDASNRATGIPARFSGSGSGTDFTLTISSLEPEDFAVYYCQQSSNWPRTFGQGTKVEIKR",–,21.5%,32.5%,85.6%
"anti-PD-1 antibody 2 HC Gly44Cys (antibody, human IgG4 S228P, kappa, V domains shown, arm on Cys44 as named in each row) VH: QVQLVESGGGVVQPGRSLRLDCKASGITFSNSGMHWVRQAPGKCLEWVAVIWYDGSKRYYADSVKGRFTISRDNSKNTLFLQMNSLRAEDTAVYYCATNDDYWGQGTLVTVSS VL: EIVLTQSPATLSLSPGERATLSCRASQSVSSYLAWYQQKPGQAPRLLIYDASNRATGIPARFSGSGSGTDFTLTISSLEPEDFAVYYCQQSSNWPRTFGQGTKVEIKR",–,30.8%,78.3%,99.3%
"anti-PD-1 antibody 2 HC Gly26Cys (antibody, human IgG4 S228P, kappa, V domains shown, arm on Cys26 as named in each row) VH: QVQLVESGGGVVQPGRSLRLDCKASCITFSNSGMHWVRQAPGKGLEWVAVIWYDGSKRYYADSVKGRFTISRDNSKNTLFLQMNSLRAEDTAVYYCATNDDYWGQGTLVTVSS VL: EIVLTQSPATLSLSPGERATLSCRASQSVSSYLAWYQQKPGQAPRLLIYDASNRATGIPARFSGSGSGTDFTLTISSLEPEDFAVYYCQQSSNWPRTFGQGTKVEIKR",–,11.7%,31.8%,95.4%
"anti-PD-1 antibody 2 HC Ser17Cys (antibody, human IgG4 S228P, kappa, V domains shown, arm on Cys17 as named in each row) VH: QVQLVESGGGVVQPGRCLRLDCKASGITFSNSGMHWVRQAPGKGLEWVAVIWYDGSKRYYADSVKGRFTISRDNSKNTLFLQMNSLRAEDTAVYYCATNDDYWGQGTLVTVSS VL: EIVLTQSPATLSLSPGERATLSCRASQSVSSYLAWYQQKPGQAPRLLIYDASNRATGIPARFSGSGSGTDFTLTISSLEPEDFAVYYCQQSSNWPRTFGQGTKVEIKR",–,42.4%,75.3%,85%
"anti-PD-1 antibody 2 HC Ala88Cys (antibody, human IgG4 S228P, kappa, V domains shown, arm on Cys88 as named in each row) VH: QVQLVESGGGVVQPGRSLRLDCKASGITFSNSGMHWVRQAPGKGLEWVAVIWYDGSKRYYADSVKGRFTISRDNSKNTLFLQMNSLRCEDTAVYYCATNDDYWGQGTLVTVSS VL: EIVLTQSPATLSLSPGERATLSCRASQSVSSYLAWYQQKPGQAPRLLIYDASNRATGIPARFSGSGSGTDFTLTISSLEPEDFAVYYCQQSSNWPRTFGQGTKVEIKR",–,27%,46.8%,84.3%

# Results, then the binder that gave them:
binding activity (OD after mutation/OD wild type) (PD-1 [1]),"binding activity, % of wild type (PD-1 [2])","binding activity, % of wild type (PD-1 [3])","binding activity, % of wild type (PD-1 [4])",Binder
90 to 110%,–,–,–,"anti-PD-1 antibody 2 light chain S52C (antibody, human IgG4 S228P, kappa, V domains shown) VH: QVQLVESGGGVVQPGRSLRLDCKASGITFSNSGMHWVRQAPGKGLEWVAVIWYDGSKRYYADSVKGRFTISRDNSKNTLFLQMNSLRAEDTAVYYCATNDDYWGQGTLVTVSS VL: EIVLTQSPATLSLSPGERATLSCRASQSVSSYLAWYQQKPGQAPRLLIYDACNRATGIPARFSGSGSGTDFTLTISSLEPEDFAVYYCQQSSNWPRTFGQGTKVEIKR"
–,27%,48.7%,99.8%,"anti-PD-1 antibody 2 HC Ser25Cys (antibody, human IgG4 S228P, kappa, V domains shown, arm on Cys25 as named in each row) VH: QVQLVESGGGVVQPGRSLRLDCKACGITFSNSGMHWVRQAPGKGLEWVAVIWYDGSKRYYADSVKGRFTISRDNSKNTLFLQMNSLRAEDTAVYYCATNDDYWGQGTLVTVSS VL: EIVLTQSPATLSLSPGERATLSCRASQSVSSYLAWYQQKPGQAPRLLIYDASNRATGIPARFSGSGSGTDFTLTISSLEPEDFAVYYCQQSSNWPRTFGQGTKVEIKR"
90 to 110%,–,–,–,"anti-PD-1 antibody 2 light chain S91C (antibody, human IgG4 S228P, kappa, V domains shown) VH: QVQLVESGGGVVQPGRSLRLDCKASGITFSNSGMHWVRQAPGKGLEWVAVIWYDGSKRYYADSVKGRFTISRDNSKNTLFLQMNSLRAEDTAVYYCATNDDYWGQGTLVTVSS VL: EIVLTQSPATLSLSPGERATLSCRASQSVSSYLAWYQQKPGQAPRLLIYDASNRATGIPARFSGSGSGTDFTLTISSLEPEDFAVYYCQQCSNWPRTFGQGTKVEIKR"
–,22.9%,56.9%,81.4%,"anti-PD-1 antibody 2 HC Ser71Cys (antibody, human IgG4 S228P, kappa, V domains shown, arm on Cys71 as named in each row) VH: QVQLVESGGGVVQPGRSLRLDCKASGITFSNSGMHWVRQAPGKGLEWVAVIWYDGSKRYYADSVKGRFTICRDNSKNTLFLQMNSLRAEDTAVYYCATNDDYWGQGTLVTVSS VL: EIVLTQSPATLSLSPGERATLSCRASQSVSSYLAWYQQKPGQAPRLLIYDASNRATGIPARFSGSGSGTDFTLTISSLEPEDFAVYYCQQSSNWPRTFGQGTKVEIKR"
90 to 110%,–,–,–,"anti-PD-1 antibody 2 light chain T56C (antibody, human IgG4 S228P, kappa, V domains shown) VH: QVQLVESGGGVVQPGRSLRLDCKASGITFSNSGMHWVRQAPGKGLEWVAVIWYDGSKRYYADSVKGRFTISRDNSKNTLFLQMNSLRAEDTAVYYCATNDDYWGQGTLVTVSS VL: EIVLTQSPATLSLSPGERATLSCRASQSVSSYLAWYQQKPGQAPRLLIYDASNRACGIPARFSGSGSGTDFTLTISSLEPEDFAVYYCQQSSNWPRTFGQGTKVEIKR"
–,15.3%,31.8%,89.7%,"anti-PD-1 antibody 2 HC Ser30Cys (antibody, human IgG4 S228P, kappa, V domains shown, arm on Cys30 as named in each row) VH: QVQLVESGGGVVQPGRSLRLDCKASGITFCNSGMHWVRQAPGKGLEWVAVIWYDGSKRYYADSVKGRFTISRDNSKNTLFLQMNSLRAEDTAVYYCATNDDYWGQGTLVTVSS VL: EIVLTQSPATLSLSPGERATLSCRASQSVSSYLAWYQQKPGQAPRLLIYDASNRATGIPARFSGSGSGTDFTLTISSLEPEDFAVYYCQQSSNWPRTFGQGTKVEIKR"
90 to 110%,–,–,–,"anti-PD-1 antibody 2 light chain T97C (antibody, human IgG4 S228P, kappa, V domains shown) VH: QVQLVESGGGVVQPGRSLRLDCKASGITFSNSGMHWVRQAPGKGLEWVAVIWYDGSKRYYADSVKGRFTISRDNSKNTLFLQMNSLRAEDTAVYYCATNDDYWGQGTLVTVSS VL: EIVLTQSPATLSLSPGERATLSCRASQSVSSYLAWYQQKPGQAPRLLIYDASNRATGIPARFSGSGSGTDFTLTISSLEPEDFAVYYCQQSSNWPRCFGQGTKVEIKR"
90 to 110%,–,–,–,"anti-PD-1 antibody 2 light chain S92C (antibody, human IgG4 S228P, kappa, V domains shown) VH: QVQLVESGGGVVQPGRSLRLDCKASGITFSNSGMHWVRQAPGKGLEWVAVIWYDGSKRYYADSVKGRFTISRDNSKNTLFLQMNSLRAEDTAVYYCATNDDYWGQGTLVTVSS VL: EIVLTQSPATLSLSPGERATLSCRASQSVSSYLAWYQQKPGQAPRLLIYDASNRATGIPARFSGSGSGTDFTLTISSLEPEDFAVYYCQQSCNWPRTFGQGTKVEIKR"

# — patent US20230158141A1 (YAFEI SHANGHAI BIOLOG MEDICINE SCIENCE AND TECHNOLOGY, published 2023)
